Results: paper PMC4931317, “UtpA and UtpB chaperone nascent pre-ribosomal RNA and U3 snoRNA to initiate eukaryotic ribosome assembly” (Nature Communications, 2016)

B2: Utp9 (natural protein, S. cerevisiae, UniProt P38882 1-575, looked up)
chain: MGSSLDLVASFSHDSTRFAFQASVAQKNNVDIYPLNETKDYVVNSSLVSHIDYETNDMKVSDVIFFGWCSDLIDTQSSNIKRKLDEDEGTGESSEQRCENFFVNGFPDGRIVVYSSNGKDIVNIIKNKKEILGADTDESDIWILDSDKVVKKLQYNNSKPLKTFTLVDGKDDEIVHFQILHQNGTLLVCIITKQMVYIVDPSKRRPSTKYSFEISDAVACEFSSDGKYLLIANNEELIAYDLKEDSKLIQSWPVQVKTLKTLDDLIMALTTDGKINNYKIGEADKVCSIVVNEDLEIIDFTPINSKQQVLISWLNVNEPNFESISLKEIETQGYITINKNEKNNADEADQKKLEEKEEEAQPEVQHEKKETETKINKKVSKSDQVEIANILSSHLEANSTEILDDLMSGSWTEPEIKKFILTKINTVDHLSKIFLTISKSITQNPWNEENLLPLWLKWLLTLKSGELNSIKDKHTKKNCKHLKSALRSSEEILPVLLGIQGRLEMLRRQAKLREDLAQLSMQEGEDDEIEVIEHSNVISNPLQDQASPVEKLEPDSIVYANGESDEFVDASEYKD
notes: Utp9, S. cerevisiae, subunit of UtpA; No tag is named for it in either strain; strains are in Supplementary Data 1; source: endogenous, S. cerevisiae YSK32, co-purified with Utp10-GFP; overexpressed (galactose promoter) in S. cerevisiae YSK122, co-purified with Utp15-mCherry

Assays:
Utp10-3C-GFP = biological target: T1, Utp10-3C-GFP (S. cerevisiae, UniProt P42945 1-1769); test: pull-down; UtpA held via Utp10-GFP on anti-GFP nanobody sepharose (purified at 200 mM NaCl), then incubated 7 h at 4 °C in buffer with 400 mM NaCl; 3C elution; Coomassie-stained SDS-PAGE; settings: partners not purified
T1 construct: Utp10, S. cerevisiae, subunit of UtpA (200 kDa); GFP is joined through a 3C protease site; it holds the protein on the beads in a1-a3 and is cleaved off by 3C on elution, so it is absent in the SEC step and in the DSS cross-linking (a6); also called Utp10-GFP; Utp10-sbp-H14-3C-GFP; source: S. cerevisiae YSK32, C-terminal tag integrated in the genome, endogenous level; captured from lysate on …
T1 sequence (P42945 whole entry): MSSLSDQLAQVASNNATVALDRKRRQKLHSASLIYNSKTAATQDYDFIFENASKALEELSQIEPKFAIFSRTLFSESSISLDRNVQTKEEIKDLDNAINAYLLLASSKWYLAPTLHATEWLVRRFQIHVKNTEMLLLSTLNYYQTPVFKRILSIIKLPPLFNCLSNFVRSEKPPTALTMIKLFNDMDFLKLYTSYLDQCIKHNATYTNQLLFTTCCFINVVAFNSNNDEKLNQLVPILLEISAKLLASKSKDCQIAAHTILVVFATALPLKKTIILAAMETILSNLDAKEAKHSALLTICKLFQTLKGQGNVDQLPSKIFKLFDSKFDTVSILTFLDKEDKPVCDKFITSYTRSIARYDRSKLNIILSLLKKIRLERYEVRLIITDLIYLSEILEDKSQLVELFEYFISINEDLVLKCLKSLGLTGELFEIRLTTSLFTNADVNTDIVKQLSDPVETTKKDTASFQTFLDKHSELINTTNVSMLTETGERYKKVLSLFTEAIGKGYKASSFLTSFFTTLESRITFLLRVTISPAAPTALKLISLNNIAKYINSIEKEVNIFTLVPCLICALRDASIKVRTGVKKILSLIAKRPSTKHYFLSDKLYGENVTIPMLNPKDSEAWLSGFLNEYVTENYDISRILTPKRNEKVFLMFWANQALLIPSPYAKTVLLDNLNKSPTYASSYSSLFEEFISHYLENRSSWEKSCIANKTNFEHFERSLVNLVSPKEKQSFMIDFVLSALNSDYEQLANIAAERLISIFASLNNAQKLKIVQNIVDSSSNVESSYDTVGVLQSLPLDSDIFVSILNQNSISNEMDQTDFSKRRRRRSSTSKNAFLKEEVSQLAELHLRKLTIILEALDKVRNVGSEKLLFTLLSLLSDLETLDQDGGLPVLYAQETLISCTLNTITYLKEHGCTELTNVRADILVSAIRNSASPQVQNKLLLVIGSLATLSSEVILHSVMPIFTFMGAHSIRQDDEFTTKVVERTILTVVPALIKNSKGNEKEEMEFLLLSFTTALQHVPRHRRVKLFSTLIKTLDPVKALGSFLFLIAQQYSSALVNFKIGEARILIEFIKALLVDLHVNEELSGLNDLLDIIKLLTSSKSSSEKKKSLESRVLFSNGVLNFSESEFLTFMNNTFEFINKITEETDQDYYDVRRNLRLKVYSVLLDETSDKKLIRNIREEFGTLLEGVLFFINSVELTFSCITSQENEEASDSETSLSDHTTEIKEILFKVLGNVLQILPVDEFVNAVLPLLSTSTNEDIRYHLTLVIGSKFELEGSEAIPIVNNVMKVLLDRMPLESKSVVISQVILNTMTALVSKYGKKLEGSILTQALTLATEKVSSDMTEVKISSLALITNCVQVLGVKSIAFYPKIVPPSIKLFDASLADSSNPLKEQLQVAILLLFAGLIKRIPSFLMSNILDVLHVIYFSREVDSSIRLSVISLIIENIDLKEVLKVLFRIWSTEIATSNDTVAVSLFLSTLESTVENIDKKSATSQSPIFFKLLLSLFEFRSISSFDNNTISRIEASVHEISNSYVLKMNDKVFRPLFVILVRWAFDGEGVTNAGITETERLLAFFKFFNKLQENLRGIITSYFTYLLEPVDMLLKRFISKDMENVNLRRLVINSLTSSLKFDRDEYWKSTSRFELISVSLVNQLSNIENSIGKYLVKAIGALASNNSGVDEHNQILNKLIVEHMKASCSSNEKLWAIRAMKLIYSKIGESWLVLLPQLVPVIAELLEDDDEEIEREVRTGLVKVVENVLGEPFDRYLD

Utp4 = biological target: T2, Utp4 (S. cerevisiae, UniProt Q06679 1-776); test: cross-linking; DSS (0.2 mM, H12/D12) cross-linking of SEC-purified endogenous UtpA, 25 °C, 30 min, 50 mM HEPES-NaOH pH 7.6, 200 mM NaCl, 1 mM EDTA; cross-linked peptides found by mass spectrometry (pLink); settings: both partners purified
T2 construct: Utp4, S. cerevisiae, subunit of UtpA; No tag is named for it in either strain; strains are in Supplementary Data 1; source: endogenous, S. cerevisiae YSK32, co-purified with Utp10-GFP; overexpressed (galactose promoter) in S. cerevisiae YSK122, co-purified with Utp15-mCherry
T2 sequence (looked up): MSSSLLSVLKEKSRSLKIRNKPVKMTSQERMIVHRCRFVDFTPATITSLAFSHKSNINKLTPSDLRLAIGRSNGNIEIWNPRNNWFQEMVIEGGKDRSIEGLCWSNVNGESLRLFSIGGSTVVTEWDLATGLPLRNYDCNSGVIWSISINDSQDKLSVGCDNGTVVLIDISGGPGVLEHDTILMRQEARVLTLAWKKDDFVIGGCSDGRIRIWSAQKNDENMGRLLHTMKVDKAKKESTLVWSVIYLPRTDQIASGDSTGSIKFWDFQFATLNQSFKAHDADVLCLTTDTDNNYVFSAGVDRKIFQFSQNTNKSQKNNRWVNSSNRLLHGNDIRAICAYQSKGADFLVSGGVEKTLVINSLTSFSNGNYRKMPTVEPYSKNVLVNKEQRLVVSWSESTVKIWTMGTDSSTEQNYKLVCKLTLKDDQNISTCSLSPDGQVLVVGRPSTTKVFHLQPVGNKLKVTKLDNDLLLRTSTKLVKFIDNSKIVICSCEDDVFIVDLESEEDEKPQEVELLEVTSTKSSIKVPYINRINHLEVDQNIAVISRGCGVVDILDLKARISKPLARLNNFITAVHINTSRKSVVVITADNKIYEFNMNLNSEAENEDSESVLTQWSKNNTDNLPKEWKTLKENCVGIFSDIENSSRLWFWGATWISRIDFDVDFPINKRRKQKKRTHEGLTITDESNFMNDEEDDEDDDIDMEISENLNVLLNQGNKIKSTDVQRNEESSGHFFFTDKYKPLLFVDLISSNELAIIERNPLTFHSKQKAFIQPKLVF

Utp5 = biological target: T3, Utp5 (S. cerevisiae, UniProt Q04177 1-643); test: pull-down; Utp4, Utp5, Utp8, Utp9 and Utp15-3myc-TEV-mCherry-3FLAG overexpressed in yeast YSK122; lysate on anti-mCherry nanobody sepharose; 50 mM HEPES-NaOH pH 7.6, 100 mM NaCl, 4 °C; TEV elution; settings: partners not purified
T3 construct: Utp5, S. cerevisiae, subunit of UtpA; No tag is named for it in either strain; strains are in Supplementary Data 1; source: endogenous, S. cerevisiae YSK32, co-purified with Utp10-GFP; overexpressed (galactose promoter) in S. cerevisiae YSK122, co-purified with Utp15-mCherry
T3 sequence (looked up): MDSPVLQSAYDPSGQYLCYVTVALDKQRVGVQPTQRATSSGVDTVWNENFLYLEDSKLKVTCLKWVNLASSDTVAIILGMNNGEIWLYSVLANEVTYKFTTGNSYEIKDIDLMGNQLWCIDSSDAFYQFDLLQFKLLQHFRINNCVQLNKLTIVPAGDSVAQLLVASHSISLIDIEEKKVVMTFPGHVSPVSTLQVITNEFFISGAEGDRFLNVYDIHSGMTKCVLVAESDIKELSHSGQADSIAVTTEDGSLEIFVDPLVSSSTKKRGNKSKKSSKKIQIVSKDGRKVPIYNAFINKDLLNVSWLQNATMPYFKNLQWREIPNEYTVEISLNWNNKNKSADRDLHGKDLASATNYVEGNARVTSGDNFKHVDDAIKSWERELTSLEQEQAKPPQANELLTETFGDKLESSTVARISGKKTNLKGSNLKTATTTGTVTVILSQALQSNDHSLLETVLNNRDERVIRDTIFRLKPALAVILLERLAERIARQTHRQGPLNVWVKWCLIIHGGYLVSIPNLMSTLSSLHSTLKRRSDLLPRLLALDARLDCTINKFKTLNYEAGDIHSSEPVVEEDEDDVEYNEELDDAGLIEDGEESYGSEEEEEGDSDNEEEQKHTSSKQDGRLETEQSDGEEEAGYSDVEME

Utp8 = biological target: T4, Utp8 (S. cerevisiae, UniProt P53276 1-713); test: as above; settings: partners not purified
T4 construct: Utp8, S. cerevisiae, subunit of UtpA; No tag is named for it in either strain; strains are in Supplementary Data 1; source: endogenous, S. cerevisiae YSK32, co-purified with Utp10-GFP; overexpressed (galactose promoter) in S. cerevisiae YSK122, co-purified with Utp15-mCherry
T4 sequence (looked up): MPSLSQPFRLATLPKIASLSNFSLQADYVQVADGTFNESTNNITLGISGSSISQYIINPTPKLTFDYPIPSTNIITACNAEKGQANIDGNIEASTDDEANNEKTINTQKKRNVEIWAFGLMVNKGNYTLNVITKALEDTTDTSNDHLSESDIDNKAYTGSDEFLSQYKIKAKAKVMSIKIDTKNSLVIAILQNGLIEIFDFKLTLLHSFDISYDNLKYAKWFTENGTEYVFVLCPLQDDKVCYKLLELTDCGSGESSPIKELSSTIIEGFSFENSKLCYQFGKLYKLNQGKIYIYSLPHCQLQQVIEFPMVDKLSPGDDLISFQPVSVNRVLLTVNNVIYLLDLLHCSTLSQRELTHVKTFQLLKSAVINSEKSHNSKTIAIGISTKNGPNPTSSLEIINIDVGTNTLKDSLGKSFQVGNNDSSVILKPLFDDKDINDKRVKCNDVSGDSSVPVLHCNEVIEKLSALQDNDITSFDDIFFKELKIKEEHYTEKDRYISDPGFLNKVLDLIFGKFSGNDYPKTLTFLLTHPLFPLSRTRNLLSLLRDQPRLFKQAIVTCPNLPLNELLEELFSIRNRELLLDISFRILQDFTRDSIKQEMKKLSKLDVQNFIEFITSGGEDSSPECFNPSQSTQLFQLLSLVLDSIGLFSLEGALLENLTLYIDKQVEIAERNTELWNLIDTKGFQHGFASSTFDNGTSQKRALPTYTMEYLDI

Utp9 = biological target: B2; test: as above; settings: partners not purified

B1: Utp17 (Nan1) (natural protein, S. cerevisiae, UniProt Q02931 1-896, looked up)
chain: MTQSLGIEQYKLSVVSGGKPALNNLSSVTGNKNIARLSQDQRNYIIPFNNQIKVYSVETRQCVKTLKFANNSLLSGIFLQEEENNESIVKILLGDITVPQQEDAHLITVFTNNGHVIVLNYKGKLVESPKHFKISLADEKLANVFHSEGNYRILTTFKDPSQKAHNSLQSYRLYALTFDDAKKQFEVAHQAEWHNVILSNISSNGKLLAHMCKDVSTKDHEHKSISVVSLFDDSVNLSFPLGSILSSQTQSLSYNTRYVSSMAIDNMGQQLAVGFASGVISIVSLADLQIRLLKWHIDSVLSLSFSHDGSYLLSGGWEKVMSLWQLETNSQQFLPRLNGIIIDCQVLGPQGNYYSLILQMTENNSNSDYQFLLLNASDLTSKLSINGPLPVFNSTIKHIQQPISAMNTKNSNSITSLNHSKKKQSRKLIKSRRQDFTTNVEINPINKNLYFPHISAVQIFDFYKNEQVNYQYLTSGVNNSMGKVRFELNLQDPIITDLKFTKDGQWMITYEIEYPPNDLLSSKDLTHILKFWTKNDNETNWNLKTKVINPHGISVPITKILPSPRSVNNSQGCLTADNNGGLKFWSFDSHESNWCLKKISLPNFNHFSNSVSLAWSQDGSLIFHGFDDKLQILDFDTFKKFESLENTKTVSEFTLDSEIQTVKLINDTNLIVATRTTLNAINLLRGQVINSFDLYPFVNGVYKNGHMDRLITCDERTGNIALVINQQLTDLDGVPTINYKSRIIIFDSDLSTKLGNFTHHEYISWIGWNYDTDFIFLDIESTLGVVGTTVNTQLSDEVNNEGILDGLVSNTITTSASNSDIFAEQLHKLSSRGKKSDTRDKNTNDNDEDEEDIALEFINGEKKDKLVNMNSFTSMFDNIQNVQMDTFFDRVMKVLT
notes: Utp17 (Nan1), S. cerevisiae, subunit of UtpA (101 kDa); source: endogenous, S. cerevisiae YSK32, co-purified with Utp10-GFP
Utp10-3C-GFP
  binding result: binds

## B2
Utp4
  binding result: binds

B3: Utp15-3myc-TEV-mCherry-3FLAG (overexpressed) (natural protein, S. cerevisiae, UniProt Q04305 1-513, looked up)
chain: MSTARPRIITSKAPLLPQQTTPEQRYWRQYTSAQLVKEHNSVTHISFNPQHPHDFAVTSSTRVQIFSSRTRQVIKTFSRFKDVVYSASFRSDGKLLCAGDATGLVSVYDSYNPRTILLSINASTHPTHVTKFHTQDNKILATASDDRVTRLWDISNAYEPQLELTGATDYVRTLSFIPAAPHLVATGSYDGLIRLYDTRSSGSTPIYSLNHDQPVENVIAVSPTQIVSCGGNNFKVWDLTSNKKLYERGNFNKAVTCLDYVENFDSPMQSALIASSLDGHVKVFDPLDNFQVKFGWKFSGPVLSCAVSPSTAQGNRHLVAGLSSGLLAIRTKKKEKRSSDKENAPASFNKNAKSNNFQRMMRGSEYQGDQEHIIHNDKVRSQRRMRAFERNINQFKWSEALDNAFVPGMAKELTLTVLQELRKRGKVRVALYGRDESTLEPLLNWCLKGIEDVRSASIVADWVAVVLELYGNTLESSPVLQELMIDLKTKVRHEIHKSKEAQRIEGMLQLLTS
notes: Utp15, S. cerevisiae, subunit of UtpA; Captured by mCherry in a4; the complex is eluted by TEV cleavage, so mCherry-3FLAG is off in the SEC step (a5); also called Utp15-TEV-mCherry; Utp15-mCherry; source: S. cerevisiae YSK122, overexpressed (galactose promoter); captured from lysate on anti-mCherry nanobody sepharose, TEV elution, SEC; not shown: 3myc, C-terminal, kept; mCherry, C-terminal, kept; …
Utp5
  binding result: binds
Utp8
  binding result: binds
Utp9
  binding result: binds
